According to patent publication US20190077860A1 (EISAI R AND D MANAGEMENT, published 2019):
Changes are numbered by the printed parent chain.

T1: human EphA6 extracellular region-SEAP-His protein (human, UniProt Q9UF33 23-550)
T1 construct: extracellular domain; also called hEphA6-SEAP-His
T1 sequence (looked up): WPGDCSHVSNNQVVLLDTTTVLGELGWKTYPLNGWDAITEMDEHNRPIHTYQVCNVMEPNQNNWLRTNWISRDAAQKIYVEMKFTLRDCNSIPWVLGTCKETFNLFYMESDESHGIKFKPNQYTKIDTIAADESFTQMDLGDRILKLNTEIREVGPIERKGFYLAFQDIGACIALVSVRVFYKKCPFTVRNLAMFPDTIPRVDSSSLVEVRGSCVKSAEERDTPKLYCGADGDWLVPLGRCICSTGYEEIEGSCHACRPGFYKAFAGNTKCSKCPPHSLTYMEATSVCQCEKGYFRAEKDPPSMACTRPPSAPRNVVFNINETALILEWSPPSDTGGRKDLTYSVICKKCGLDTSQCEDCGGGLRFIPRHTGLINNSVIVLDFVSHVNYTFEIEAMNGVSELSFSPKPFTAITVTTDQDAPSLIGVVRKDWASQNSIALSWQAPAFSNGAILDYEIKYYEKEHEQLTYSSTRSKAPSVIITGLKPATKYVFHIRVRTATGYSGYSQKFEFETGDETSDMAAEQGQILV

T2: human EphA8 extracellular region-SEAP-His protein (human, UniProt P29322 28-542)
T2 construct: extracellular domain; also called hEphA8-SEAP-His
T2 sequence (looked up): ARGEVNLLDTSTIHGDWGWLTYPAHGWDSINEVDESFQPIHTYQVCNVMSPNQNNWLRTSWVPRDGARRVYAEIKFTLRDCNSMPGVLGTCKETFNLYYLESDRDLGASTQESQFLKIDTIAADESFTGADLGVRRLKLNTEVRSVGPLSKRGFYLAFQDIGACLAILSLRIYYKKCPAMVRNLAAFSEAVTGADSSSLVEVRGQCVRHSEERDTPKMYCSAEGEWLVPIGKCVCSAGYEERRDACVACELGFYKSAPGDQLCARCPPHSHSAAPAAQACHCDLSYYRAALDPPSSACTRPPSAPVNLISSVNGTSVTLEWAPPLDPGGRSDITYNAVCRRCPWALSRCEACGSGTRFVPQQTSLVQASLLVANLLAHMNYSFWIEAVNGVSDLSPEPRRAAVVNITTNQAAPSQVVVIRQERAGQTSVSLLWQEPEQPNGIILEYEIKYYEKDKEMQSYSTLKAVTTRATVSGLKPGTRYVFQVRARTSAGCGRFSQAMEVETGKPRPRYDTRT

T3: human EphA10 extracellular region-SEAP-His protein (human, UniProt Q5JZY3 34-565)
T3 construct: extracellular domain; also called hEphA10-SEAP-His
T3 sequence (looked up): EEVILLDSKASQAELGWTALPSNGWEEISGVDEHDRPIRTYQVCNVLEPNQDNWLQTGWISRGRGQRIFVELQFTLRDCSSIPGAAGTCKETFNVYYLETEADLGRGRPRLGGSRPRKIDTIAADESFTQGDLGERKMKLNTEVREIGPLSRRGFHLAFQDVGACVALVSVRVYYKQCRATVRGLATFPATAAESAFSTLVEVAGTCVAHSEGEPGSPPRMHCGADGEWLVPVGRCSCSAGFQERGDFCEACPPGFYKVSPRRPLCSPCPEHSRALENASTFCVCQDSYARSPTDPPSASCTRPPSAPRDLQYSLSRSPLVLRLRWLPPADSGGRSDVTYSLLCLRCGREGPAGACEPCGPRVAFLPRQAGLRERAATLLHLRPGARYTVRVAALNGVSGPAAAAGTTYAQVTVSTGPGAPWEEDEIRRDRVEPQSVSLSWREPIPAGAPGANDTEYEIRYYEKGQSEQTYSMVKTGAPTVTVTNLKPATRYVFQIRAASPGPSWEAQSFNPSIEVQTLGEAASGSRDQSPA

B1: humanized antibody No. 160 (antibody, human IgG2)
heavy: QIQLVQSGSELKKPGASVKVSCKASGYTFTDYSMHWVRQAPGQGLKWMGWINTETGEPTYADDFKGRFVFSLDTSVSTAYLQISSLKAEDTAVYYCARIPLYYYGSRYWYFDVWGQGTTVTVSSASTKGPSVFPLAPSSRSTSESTAALGCLVKDYFPEPVTVSWNSGALTSGVHTFPAVLQSSGLYSLSSVVTVPSSNFGTQTYTCNVDHKPSNTKVDKTVERKSCVECPPCPAPPAAAPSVFLFPPKPKDTLMISRTPEVTCVVVDVSHEDPEVQFNWYVDGVEVHNAKTKPREEQFNSTFRVVSVLTVVHQDWLNGKEYKCKVSNKGLPAPIEKTISKTKGQPREPQVYTLPPSREEMTKNQVSLTCLVKGFYPSDIAVEWESNGQPENNYKTTPPMLDSDGSFFLYSKLTVDKSRWQQGNVFSCSVMHEALHNHYTQKSLSLSPG
light: DIQMTQSPSSLSASVGDRVTITCRASENIYRNLAWYQQKPGKAPQLLLYAATNLADGVPSRFSGSGSGTDYTLTISSLQPEDFATYYCQHFWGTPWTFGQGTKVEIKRTVAAPSVFIFPPSDEQLKSGTASVVCLLNNFYPREAKVQWKVDNALQSGNSQESVTEQDSKDSTYSLSSTLTLSKADYEKHKVYACEVTHQGLSSPVTKSFNRGEC
notes: human Ig kappa; also called L1-6/HK4
B2: humanized antibody No. 134 (antibody, human IgG2)
heavy: B1 heavy with I2V, D62Q, D63G, K65T
light: EIVMTQSPATLSVSPGERATLSCRASENIYRNLAWYQQKPGQSPRLLIYAATNLADGIPARFSGSGSGTEYTLTISSLQSEDFAVYYCQHFWGTPWTFGQGTKVEIKRTVAAPSVFIFPPSDEQLKSGTASVVCLLNNFYPREAKVQWKVDNALQSGNSQESVTEQDSKDSTYSLSSTLTLSKADYEKHKVYACEVTHQGLSSPVTKSFNRGEC
notes: human Ig kappa; also called L2-4/HA2
B3: humanized antibody No. 136 (antibody, human IgG2)
heavy: B1 heavy with I2V
light: B2 light
notes: human Ig kappa; also called L2-4/HK2
B4: humanized antibody No. 132 (antibody, human IgG2)
heavy: B1 heavy with D62Q, D63G, K65T
light: B2 light
notes: human Ig kappa; also called L2-4/HA4
B5: humanized antibody No. 135 (antibody, human IgG2)
heavy: B1 heavy with I2V, K46E
light: B2 light
notes: human Ig kappa; also called L2-4/HK1
B6: humanized antibody No. 137 (antibody, human IgG2)
heavy: B1 heavy
light: B2 light
notes: human Ig kappa; also called L2-4/HK4
B7: humanized antibody No. 133 (antibody, human IgG2)
heavy: B1 heavy with I2V, K46E, D62Q, D63G, K65T
light: B2 light
notes: human Ig kappa; also called L2-4/HA1
B8: humanized antibody No. 94 (antibody, human IgG1, kappa)
heavy: QVQLVQSGSELKKPGASVKVSCKASGYTFTDYSMHWVRQAPGQGLKWMGWINTETGEPTYAQGFTGRFVFSLDTSVSTAYLQISSLKAEDTAVYYCARIPLYYYGSRYWYFDVWGQGTTVTVSSASTKGPSVFPLAPSSKSTSGGTAALGCLVKDYFPEPVTVSWNSGALTSGVHTFPAVLQSSGLYSLSSVVTVPSSSLGTQTYICNVNHKPSNTKVDKRVEPKSCDKTHTCPPCPAPPAAAPSVFLFPPKPKDTLMISRTPEVTCVVVDVSHEDPEVQFNWYVDGVEVHNAKTKPREEQFNSTFRVVSVLTVVHQDWLNGKEYKCKVSNKGLPAPIEKTISKTKGQPREPQVYTLPPSREEMTKNQVSLTCLVKGFYPSDIAVEWESNGQPENNYKTTPPMLDSDGSFFLYSKLTVDKSRWQQGNVFSCSVMHEALHNHYTQKSLSLSPG
light: B2 light
notes: as for B2
B9: humanized antibody No. 96 (antibody, human IgG1, kappa)
heavy: B8 heavy with Q62D, G63D, T65K
light: B2 light
notes: as for B3
B10: humanized antibody No. 73 (antibody, human IgG1, kappa)
heavy: B8 heavy with V2I, Q62D, G63D, T65K
light: B2 light
notes: as for B6
B11: humanized antibody No. 93 (antibody, human IgG1, kappa)
heavy: B8 heavy with K46E
light: B2 light
notes: as for B7
B12: humanized antibody No. 71 (antibody, human IgG1, kappa)
heavy: B8 heavy with V2I
light: B2 light
notes: as for B4
B13: humanized antibody No. 95 (antibody, human IgG1, kappa)
heavy: B8 heavy with K46E, Q62D, G63D, T65K
light: B2 light
notes: as for B5

Molecular target: T4, human EphA2 extracellular region-SEAP-His protein (human, UniProt P29317 24-537)
T4 construct: extracellular domain; also called hEphA2-SEAP-His
Experiment: ELISA

T4 sequence (P29317 24-537): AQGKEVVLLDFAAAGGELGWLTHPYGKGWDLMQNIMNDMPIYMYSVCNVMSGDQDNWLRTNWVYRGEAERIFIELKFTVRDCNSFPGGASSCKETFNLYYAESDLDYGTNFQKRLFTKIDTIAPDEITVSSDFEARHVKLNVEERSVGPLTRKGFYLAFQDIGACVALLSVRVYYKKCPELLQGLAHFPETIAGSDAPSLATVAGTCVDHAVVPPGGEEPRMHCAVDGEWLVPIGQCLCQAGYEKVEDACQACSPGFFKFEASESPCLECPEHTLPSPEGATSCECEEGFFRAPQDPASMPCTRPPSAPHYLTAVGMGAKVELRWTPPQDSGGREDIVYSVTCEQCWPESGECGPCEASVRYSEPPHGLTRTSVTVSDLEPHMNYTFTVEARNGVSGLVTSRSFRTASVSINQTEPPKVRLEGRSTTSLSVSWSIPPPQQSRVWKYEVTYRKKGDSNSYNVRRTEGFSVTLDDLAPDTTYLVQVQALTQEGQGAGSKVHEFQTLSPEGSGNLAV

| A450 as % of hEphA4-SEAP-His | Binder |
| --- | --- |
| 6.1% | B1 |
| 5% | B2 |
| 5.1% | B3 |
| 4.8% | B4 |
| 5% | B5 |
| 5.4% | B6 |
| 4.7% | B7 |
| 6.4% | B8 |
| 5.3% | B9 |
| 5.7% | B10 |
| 5% | B11 |
| 5.7% | B12 |
| 4.2% | B13 |

Molecular target: T1, human EphA6 extracellular …
Experiment: ELISA

| A450 as % of hEphA4-SEAP-His | Binder |
| --- | --- |
| 8.7% | B1 |
| 9.6% | B2 |
| 7.2% | B3 |
| 9.7% | B4 |
| 7% | B5 |
| 7.1% | B6 |
| 8.8% | B7 |
| 8.6% | B8 |
| 9.8% | B9 |
| 7.4% | B10 |
| 7.1% | B11 |
| 9.2% | B12 |
| 7% | B13 |

Molecular target: T2, human EphA8 extracellular …
Experiment: ELISA

| A450 as % of hEphA4-SEAP-His | Binder |
| --- | --- |
| 5.4% | B1 |
| 5.7% | B2 |
| 5.4% | B3 |
| 4.7% | B4 |
| 5% | B5 |
| 5.9% | B6 |
| 4.7% | B7 |
| 7% | B8 |
| 5.4% | B9 |
| 5.8% | B10 |
| 5% | B11 |
| 5.3% | B12 |
| 4.4% | B13 |

Molecular target: T3, human EphA10 extracellular …
Experiment: ELISA

| A450 as % of hEphA4-SEAP-His | Binder |
| --- | --- |
| 5% | B1 |
| 5% | B2 |
| 5.2% | B3 |
| 4.7% | B4 |
| 5.1% | B5 |
| 5.6% | B6 |
| 4.7% | B7 |
| 6.4% | B8 |
| 5.3% | B9 |
| 5.6% | B10 |
| 4.9% | B11 |
| 5.3% | B12 |
| 4.5% | B13 |

Molecular target: T5, human EphA4 extracellular region-SEAP-His protein (human, UniProt P54764 20-547)
T5 construct: also called hEphA4-SEAP-His
Experiment: ELISA

T5 sequence (P54764 20-547): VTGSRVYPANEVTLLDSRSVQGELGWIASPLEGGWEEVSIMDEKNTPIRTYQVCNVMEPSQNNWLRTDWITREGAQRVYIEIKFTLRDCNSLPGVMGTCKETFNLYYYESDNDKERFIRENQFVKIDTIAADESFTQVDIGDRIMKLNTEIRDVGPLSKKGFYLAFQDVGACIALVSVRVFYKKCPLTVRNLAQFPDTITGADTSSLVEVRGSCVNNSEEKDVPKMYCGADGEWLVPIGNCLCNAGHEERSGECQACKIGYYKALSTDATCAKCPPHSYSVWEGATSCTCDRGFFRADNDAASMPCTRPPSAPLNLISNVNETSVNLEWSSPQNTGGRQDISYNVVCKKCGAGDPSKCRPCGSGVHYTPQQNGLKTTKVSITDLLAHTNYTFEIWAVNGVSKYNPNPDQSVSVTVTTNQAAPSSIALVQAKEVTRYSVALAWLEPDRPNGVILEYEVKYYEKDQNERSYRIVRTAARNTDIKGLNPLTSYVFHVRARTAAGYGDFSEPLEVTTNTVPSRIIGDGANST

| A450 as % of hEphA4-SEAP-His | Binder |
| --- | --- |
| 100% | B1 |
| 100% | B2 |
| 100% | B3 |
| 100% | B4 |
| 100% | B5 |
| 100% | B6 |
| 100% | B7 |
| 100% | B8 |
| 100% | B9 |
| 100% | B10 |
| 100% | B11 |
| 100% | B12 |
| 100% | B13 |
